# Publication PMC4549301 (2015)
# B1: GST–HCF-1rep1, wild type (HCF-1 residues 867–1071) [human] / Recombinant human O-linked β-N-acetylglucosamine transferase (OGT), wild type [human] (parent)
# chain 1: PAVTTLVVKGTTGVTTLGTVTGTVSTSLAGAGGHSTSASLATPITTLGTIATLSSQVINPTAITVSAAQTTLTAAGGLTTPTITMQPVSQPTQVTLITAPSGVEAQPVHDLPVSILASPTTEQPTATVTIADSGQGDVQPGTVTLVCSNPPCETHETGTTNTATTTVVANLGGHPQPTQVQFVCDRQEAAASLVTSTVGQQNGSV
# chain 2: MASSVGNVADSTGLAELAHREYQAGDFEAAERHCMQLWRQEPDNTGVLLLLSSIHFQCRRLDRSAHFSTLAIKQNPLLAEAYSNLGNVYKERGQLQEAIEHYRHALRLKPDFIDGYINLAAALVAAGDMEGAVQAYVSALQYNPDLYCVRSDLGNLLKALGRLEEAKACYLKAIETQPNFAVAWSNLGCVFNAQGEIWLAIHHFEKAVTLDPNFLDAYINLGNVLKEARIFDRAVAAYLRALSLSPNHAVVHGNLACVYYEQGLIDLAIDTYRRAIELQPHFPDAYCNLANALKEKGSVAEAEDCYNTALRLCPTHADSLNNLANIKREQGNIEEAVRLYRKALEVFPEFAAAHSNLASVLQQQGKLQEALMHYKEAIRISPTFADAYSNMGNTLKEMQDVQGALQCYTRAIQINPAFADAHSNLASIHKDSGNIPEAIASYRTALKLKPDFPDAYCNLAHCLQIVCDWTDYDERMKKLVSIVADQLEKNRLPSVHPHHSMLYPLSHGFRKAIAERHGNLCLDKINVLHKPPYEHPKDLKLSDGRLRVGYVSSDFGNHPTSHLMQSIPGMHNPDKFEVFCYALSPDDGTNFRVKVMAEANHFIDLSQIPCNGKAADRIHQDGIHILVNMNGYTKGARNELFALRPAPIQAMWLGYPGTSGALFMDYIITDQETSPAEVAEQYSEKLAYMPHTFFIGDHANMFPHLKKKAVIDFKSNGHIYDNRIVLNGIDLKAFLDSLPDVKIVKMKCPDGGDNADSSNTALNMPVIPMNTIAEAVIEMINRGQIQITINGFSISNGLATTQINNKAATGEEVPRTIIVTTRSQYGLPEDAIVYCNFNQLYKIDPSTLQMWANILKRVPNSVLWLLRFPAVGEPNIQQYAQNMGLPQNRIIFSPVAPKEEHVRRGQLADVCLDTPLCNGHTTGMDVLWAGTPMVTMPGETLASRVAASQLTCLGCLELIAKNRQEYEDIAVKLGTDLEYLKKVRGKVWKQRISSPLFNTKQYTMELERLYLQMWEHYAAGNKPDHMIKPVEVTESA
# Variants of: B1
# Experiment: in vitro HCF-1rep1-OGT binding assay (OGT pull-down, quantified immunoblot)
# Conditions: with Recombinant human O-linked β-N-acetylglucosamine transferase (OGT), in the presence of UDP-GlcNAc, read off a plot
row,screen value (log2 fold change),Variant
1,0.8,chain 1 PAVTTLVVKGTTGVTTLGTVTGTVSTSLAGAGGHSTSASLATPITTLGTIATLSSQVINPTAITVSAAQTTLTAAGGLTTPTITMQPVSQPTQVTLITAPSGVEAQPVHDLPVSILASPTTEQPTATVTIADSGQGDVQPGTVTLVCSNPPCATHETGTTNTATTTVVANLGGHPQPTQVQFVCDRQEAAASLVTSTVGQQNGSV [chain 1 E153A]
